Experimental data as given in patent US20240158503A1 (PIERRE FABRE MEDICAMENT, published 2024).

What was measured:
[1] = target: T1, human His-tagged VSIG4 short isoform (K00400002-BR1-117) (human, UniProt Q9Y279 20-283); assay: HTRF competition: His-tagged VSIG4 short isoform with C3b-d2
T1 construct: also called hVSIG4-His (short form); not shown: His tag (detected with anti-6His)

[2] = target: T2, human VSIG4 overexpressed on HEK293E cells (human, UniProt Q9Y279 20-399); assay: flow cytometry on HEK293E cells expressing human VSIG4, antibody titration
T2 construct: whole, on cells; also called hVSIG4/HEK293E; huVSIG4

[3] = target: T3, hVSIG4(S)-hFc (VSIG4(S)-Fc) (human); assay: western blot, 100 ng hVSIG4 short-hFc
T3 construct: also called hVSIG4 short-hFc (S); VGIG4(S)-Fc

[4] = target: T1, human His-tagged VSIG4 short isoform …; assay: HTRF competition: His-tagged VSIG4 short isoform with iC3b
VSIG4-M5-Fc = target: T4, VSIG4-M5-Fc (human); assay: scFv-phage ELISA on coated Fc fusion (100 ng/well), anti-M13-HRP, A490
T4 construct: 72; Leader left out; 73

VSIG4-M2-Fc = target: T5, VSIG4-M2-Fc (human); assay: as above
T5 construct: 63; Leader left out; 64

VSIG4-M4-Fc = target: T6, VSIG4-M4-Fc (human); assay: as above
T6 construct: 69; Leader left out; 70

[5] = target: T7, hVSIG4-Fc (long VSIG4 form, epitope-mapping construct) (human); assay: as above
T7 construct: 55

[6] = target: T8, hVSIG4-V-Fc (short VSIG4 form, epitope-mapping construct) (human); assay: as above
T8 construct: 58; All M1-M8 mutations were made in this short form

VSIG4-M3-Fc = target: T9, VSIG4-M3-Fc (human); assay: as above
T9 construct: 66; Leader left out; 67

VSIG4-M1-Fc = target: T10, VSIG4-M1-Fc (human); assay: as above
T10 construct: Short form carrying E24T, V25A, E27H, V29L, T30A; Structure [LS]-QGAVGA-[VSIG4]-LAASAAS-[FC], leader left out; 61

VSIG4-M6-Fc = target: T11, VSIG4-M6-Fc (human); assay: as above
T11 construct: 75; Leader left out; 76

VSIG4-M7-Fc = target: T12, VSIG4-M7-Fc (human); assay: scFv-phage ELISA on coated Fc fusion (100 ng/well)
T12 construct: 78; Leader left out; 79

VSIG4-M8-Fc [7] = target: T13, VSIG4-M8-Fc (human); assay: scFv-phage ELISA on coated Fc fusion (100 ng/well)
T13 construct: 81; Leader left out; 82

VSIG4-M8-Fc [8] = target: T13, VSIG4-M8-Fc; assay: scFv-phage ELISA on coated Fc fusion (100 ng/well), anti-M13-HRP, A490

| Binder | IC50 [1] [nM] | EC50 [2] [nM] | binding result [3] | IC50 [4] [nM] | binding result (VSIG4-M5-Fc) | binding result (VSIG4-M2-Fc) | binding result (VSIG4-M4-Fc) | binding result [5] | binding result [6] | binding result (VSIG4-M3-Fc) | binding result (VSIG4-M1-Fc) | binding result (VSIG4-M6-Fc) | binding result (VSIG4-M7-Fc) | binding result (VSIG4-M8-Fc [7]) | binding result (VSIG4-M8-Fc [8]) |
| --- | --- | --- | --- | --- | --- | --- | --- | --- | --- | --- | --- | --- | --- | --- | --- |
| SA2297 (full-length human anti-VSIG4 monoclonal antibody, IgG form) (antibody, V domains shown, also called Mab SA2297) VH: QVQLVESGGGVVQPGGSLRLSCAASGFIFSDYYMSWVRQAPGKGLEWVSYISPSGYTISYADSVKGRFTISRDNSKNSLYLQMNSLRAEDTAVYYCARRFSSSWSGYFDYWGHGALVTVSS VL: DIQMTQSPSTLSASVGDRVTITCRASQNINRWLAWYQQKPGKAPKLLIYKAFRLHSGVPSRFSGSGSGTEFTLTITSLQPDDFATYYCQQYLSYSSSIFGQGTKVEIK | 16.4 | 1.18 | binds | 17.9 |  |  |  |  |  |  |  |  |  |  |  |
| SA2297 scFv-phage (original scFv version of SA2297) (scFv, V domains shown) VH: QVQLVESGGGVVQPGGSLRLSCAASGFIFSDYYMSWVRQAPGKGLEWVSYISPSGYTISYADSVKGRFTISRDNSKNSLYLQMNSLRAEDTAVYYCARRFSSSWSGYFDYWGHGALVTVSS VL: DIQMTQSPSTLSASVGDRVTITCRASQNINRWLAWYQQKPGKAPKLLIYKAFRLHSGVPSRFSGSGSGTEFTLTITSLQPDDFATYYCQQYLSYSSSIFGQGTKVEIK |  |  |  |  | binds | binds | binds | binds | binds | binds | binds | binds | no binding | no binding |  |
| SA2281 (full-length human anti-VSIG4 monoclonal antibody, IgG form) (antibody, V domains shown, also called Mab SA2281) VH: QVQLVESGGGVVQPGRSLRVSCAASGFTFSTYAMHWVRQAPGKGLEWLAVVSHDGTYKYYGDSVKGRFSISRDNSKNTLYLQMNSLRSEDTAVYYCGRHAAGSSFDYWGQGTVVTVSS VL: DIQMTQSPSSLSASVGDRVTITCQASRDISNYLNWYQQKPGKAPKLLIYKTSNLQRGVPSRFSGSGSGTEFTLTISRLQPDDSATYYCQQSYRTPYTFGQGTKLEIK | 7.3 | 0.461 | binds | 9.5 |  |  |  |  |  |  |  |  |  |  |  |
| SA2281 scFv-phage (original scFv version of SA2281) (scFv, V domains shown) VH: QVQLVESGGGVVQPGRSLRVSCAASGFTFSTYAMHWVRQAPGKGLEWLAVVSHDGTYKYYGDSVKGRFSISRDNSKNTLYLQMNSLRSEDTAVYYCGRHAAGSSFDYWGQGTVVTVSS VL: DIQMTQSPSSLSASVGDRVTITCQASRDISNYLNWYQQKPGKAPKLLIYKTSNLQRGVPSRFSGSGSGTEFTLTISRLQPDDSATYYCQQSYRTPYTFGQGTKLEIK |  |  |  |  | binds | binds | binds | binds | binds | binds | binds | binds | no binding |  | binds |
